These results are taken from US20220153834A1 (published 2022).

In assay [1] the target is T1, Recombinant human TSG-6 (R&D Biosystems, catalog #2104-TS) (human, UniProt P98066 18-277). The experiment in a line: inhibition of HA binding to TSG-6; HA binding.
Assay [2] addresses T1, Recombinant human TSG-6 (R&D …). Nature of the assay: inhibition of HC-HA transesterase activity; HC-HA transesterase.

The IC50 is the concentration at which inhibition is half-maximal.

T1 sequence (P98066 18-277): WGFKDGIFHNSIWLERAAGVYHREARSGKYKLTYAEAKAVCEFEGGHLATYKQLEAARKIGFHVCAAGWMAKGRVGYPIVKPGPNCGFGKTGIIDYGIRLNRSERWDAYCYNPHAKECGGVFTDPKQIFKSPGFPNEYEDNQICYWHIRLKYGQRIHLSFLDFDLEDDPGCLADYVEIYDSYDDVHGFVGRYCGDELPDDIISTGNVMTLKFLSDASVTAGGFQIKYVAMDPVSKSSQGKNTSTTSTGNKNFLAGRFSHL

B1: 4E4 (antibody, V domains shown)
VH: QVQLQQPGAELVKPGASVKLSCKASGYTFTSYWMHWVKQRPGQGLEWIGMIHPNSGSTNYNEKFKNKATLTVDKSSSTAYMQLSSLTSEDSAVYYCAPRMFDDYDDYWGQGTTLTVSS
VL: QIVLTQSPAIMSASLGERVTMTCTASSSVSSSYLHWYQQKPGSSPKLWIYSTSNLASGVPVRFSGSGSGTSYSLTISRMEAEDAATYYCHHYHRSPYTFGGGTKLEIKR
Consider B1, for which the IC50 in assay [1] is above 667 nM; in assay [2], 140 nM.

B2: ID12 (antibody, V domains shown)
VH: QVQLQQSGPELVKPGASVKLSCKTSGYTFTSYDINWVKQRPGQGLEWIGWIYPSDGSTKFNEKFKGMATLTVDTSSSTAYMELHSLTSEDSTVYFCARGLWYYGGGVDYWGQGTSVTVSS
VL: DAVMTQTPLSLPVSLGDQASISCRSTQSLEDSNGNTYLNWYLQKPGQSPQLLIYRVSNRFSGVLDRFSGSGSGTDFTLKISRVEAEDLGVYFCLQVTHVPYTFGGGTKLEIKR
For the molecule B2, the results for the IC50 in assay [1] and in assay [2] were above 667 nM and 36 nM, respectively.

B3: 3C6 (antibody, V domains shown)
VH: EVQLQQSGPELVKPGASVKIPCKASGYTFTDYNMDWVKQSHGESLEWIGDIYPNNGGTIYNQKFKDKATLTVDKSSSTAYMELRSLTSEDNAVYYCARKTGTGFDYWGQGTTLTVSS
VL: QIVLSQSPAILSASPGEKVTMTCRARSSVIYMHWYQQKPGSSPKPWIYATFNLASGVPARFSGSGSGTSYSLTISRVEAEDAATYYCQQWSSNPPTFGSGTKLEIKR
In the case of B3, the IC50 in assay [1] amounted to 10 nM; in assay [2], 12 nM.

B4: 5D9 (antibody, V domains shown)
VH: QVQLQQSGAELARPGASVKLSCKASDDTFINYGINWVKQRTGQGLEWIGETFPSNGNTFYNEKFKGKATLTADRSSSTTYMELRSLTSEDAAVYFCARHSNLPYFDHWGQGSTLTVSS
VL: DIVMTQSPSSLSVSAGEKVTMSCKSSQSLLNSGNQKNYLAWYQQKPGQPPKLLIYGASTRESGVPERFTGSGSGTDFTLTISSVQAEDLAVYYCQNDHSYPFTFGGGTNLEIKR
As for B4, the IC50 in assay [1] was around 1400 nM; in assay [2] it was 4 nM.

B5: 1A9 (antibody, V domains shown)
VH: EVQLQQSGPELVKPGASVKISCKASGYTFTDYYMNWVKQSHEKSLEWIGDINPNNGGTSYNQKFMGKATLTVDKSSRTAYMELRSLTSEDSTVYYCARWGIYDRFTYWGQGTLVSVSA
VL: DIKMTQSPSSMYASLGERVTIACKASQDINSFLSWFQQKPGKSPKTLIYRANRLVDGVPSRFSGSGSGQDYSLTISSLEYEDMGIYYCLQYDEFPLTFGAGTKLELKR
For the molecule B5, the IC50 in assay [1] stood at 32 nM; in assay [2] it was 375 nM.

B6: 1D7 (antibody, V domains shown)
VH: EVQLQQSGPELVKPGASVKISCKASGYTFTDYYMNWVKQSHGKSLEWIGDINPNNGGTTYNQKFKGKATLTVDKSSSTAYMELRSLTSEDSAVYYCARWGIFDRFTYWGQGTVVTVSA
VL: DIKMTQSPSSMYASRGERVTITCKASQDINSFLSWFQQKPGKSPKTLIYRANRLVDGVPSRFSGSGSGQDYSLTISSLEYEDMGIYYCLQYDEFPLTFGAGTKLELKR
For B6, the figures for the half-inhibitory concentration (IC50) in assay [1] and in assay [2] were 47 nM and 1100 nM, respectively.

B7: 4F1 (antibody, V domains shown)
VH: EVKLVESGGGLVQPGGSLSLSCAASGFTFTDYYMSWVRQPPGKALEWLGFIRHKAKGYTAEYSASVKGRFTISRDNSQSILYLQMNALRAEDSATYYCARLYYYGSPHWYFDVWGTGTTVTVSS
VL: QIVLTQSPAIMSASPGEKVTMTCSASSSVSYMHWYQQKSGTSPKRWIYDTSKLASGVPARFSGSGSGTSYSLTISSMEAEDAATYYCQQWSSNPPTFGSGTELEIKR
For the molecule B7, the values for the IC50 in assay [1] and in assay [2] were above 667 nM and 44 nM, respectively.

B8: 5B4 (antibody, V domains shown)
VH: QVQLQQPGAELVKPGASVKLSCKASDYTFTNYWMHWVKQRPGRGLEWIGRIDPSSGGAKYNEKFKSKATLTVDKPSSTAYMEFSSLTSEDSAVYYCVRSRYDYDGWFAYWGLGTLVTVSA
VL: DIVMTQAAPSVPVTPGESVSISCRSSKSLLHSNGNTYLYWFLQRPGQSPQLLIYRMSNLASGVPDRFSGSGSGTAFTLRISRVEAEDVGVYYCMQHLEYPFTFGGGTKLEIKR
As for B8, the IC50 is above 667 nM in assay [1] and 68 nM in assay [2].

B9: 5A5 (antibody, V domains shown)
VH: QVQLQQSGAELAKPGASVRLSCQASGYTFTTYWMHWVKQRPRQGLEWIGYIIPSSGYSKCHQKFKDKATLTADKSSNTASMQLSSLTYEDSAVYYCARSTSGYPYYFDYWGQGTTLTVSS
VL: ENVLTQSPAIMSASPGEKVTMTCSATSSVSYMHWYQQKSSTSPKLWIYDTSKLASGVPGRFSGSGSGNSYSLTISSMEAEDVATYYCFQGSWYPLTFGAGTKLELKR
As for B9, the IC50 was above 667 nM in assay [1] and 8 nM in assay [2].

B10: 3E1 (antibody, V domains shown)
VH: QVQLQQSGAELAKPGASVRLSCQASGYTFTSYWMHWVKQRPRQGLEWIGYIIPSSGYTKCHQKFKDKATLTADKSSSTAYMQLSSLTYEDSAVYYCARSTSGYPYYFDSWGQGTTLTVSS
VL: ENVLTQSPAIMSASPGERVTMTCSATSSVSFMHWYQQKSSTSPKLWIYDTSKLASGVPGRFSGSGSGNSYSLTISSMEAEDVATYYCFQGSWYPLTFGAGTKLELKR
As to B10, the IC50 in assay [1] is above 667 nM; in assay [2], 10 nM.

B11: anti-TSG-6 antibody of SEQ ID NO: 1 and SEQ ID NO: 2 (first entry of Table 1, clone name not printed) (antibody, V domains shown)
VH: QVRLQQSGAELAKPGASVKLSCKASGYTFTSYWMHWVKQRPGQGLEWIGYIIPSSGYTKNKQNFKDKATLTADKSSSTAYMQLSNLTYEDSAVYSCARSDGSYPYYFDYWGQGTTLTVSS
VL: ENVLTQSPAIMSASPGEKVTMTCSASSSVSYMHWYQQKSSTSPKLWIYDTSKLASGVPGRFSGSGSGNSYSLTISSMEAEDVATYYCFQGSGYPLTFGSGTKLEIKR
With B11, the IC50 is above 2000 nM in assay [1] and 19 nM in assay [2].

B12: 3E4 (antibody, V domains shown)
VH: QVQLQQPGAELVKPGASVKLSCKASGYTFTSQWMHWVKQRPGQGLEWIGMIHPNSGSTNNNEKFKSKATLTVDKSSSTAYMQLSSLTSEDSAVYYCTRWAMDYWGQGTSVTASS
VL: DVVMTQTPLSLPVSLGDLASISCRSSQSLVHSNGNTYLHWYLQKPGQSPKLLIFKVSNRFSGVPDRFSGSGSGTDFTLKISRVEAEDLGVYFCSQSTHVPWTFGGGTKLEIKR
As for B12, the IC50 is 290 nM in assay [1] and above 3000 nM in assay [2].
